Measurements as given in article PMC6928210 (Scientific Reports, 2019).
Values joined by “and” are separate entries in the source; they are usually repeats but may differ in a detail not shown here. Equal entries are not always repeated. Where two headings read alike, the source gives them in different places.

Legend:
[1] = biological target: T1, AtSHMT4 (Arabidopsis thaliana, UniProt O23254); test: Competitive binding assay vs 5-formyl-THF, quinonoid intermediate absorbance; conditions: AtSHMT4, 20 mM KPi pH 7.3, 30 °C, glycine 10 mM, 5-formyl-THF varied; read-out: Ki (inhibition constant, antifolate binding to the enzyme-glycine complex)
T1 construct: The open reading frames coding for AtSHMT2 41–517 fragment and full-length AtSHMT4 were amplified; His6 (N, cleaved yes); made in house; host or cells: E. coli BL21 Gold
T1 sequence (O23254 1-471): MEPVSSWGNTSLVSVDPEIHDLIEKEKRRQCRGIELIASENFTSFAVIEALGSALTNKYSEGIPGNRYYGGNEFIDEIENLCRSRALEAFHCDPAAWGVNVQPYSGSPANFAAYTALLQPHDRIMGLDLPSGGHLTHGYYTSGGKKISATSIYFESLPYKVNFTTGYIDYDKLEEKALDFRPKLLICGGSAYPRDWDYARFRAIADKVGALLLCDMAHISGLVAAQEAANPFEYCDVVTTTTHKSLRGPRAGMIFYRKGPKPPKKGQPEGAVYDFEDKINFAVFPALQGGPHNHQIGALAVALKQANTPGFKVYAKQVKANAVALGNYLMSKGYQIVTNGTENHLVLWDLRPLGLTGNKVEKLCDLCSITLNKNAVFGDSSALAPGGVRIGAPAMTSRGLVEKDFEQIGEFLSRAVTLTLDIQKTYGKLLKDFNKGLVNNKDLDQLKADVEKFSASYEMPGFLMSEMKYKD
Description: (§1) In this system, the obtained Ki values refer to binding of the antifolates to the enzyme-glycine complex.
(§2) Secondary plots of slopes as functions of antifolate concentrations were obtained from fitting of inhibition data (Fig. S2). Intercept on the X-axis gives an estimate of the inhibition constant (Ki) related to antifolate binding to the enzyme-glycine complex. Since it is known that the mitochondrial matrix has an alkaline pH (pH 8[68]) as compared to the cytosol (pH 7.3[68]), inhibition measurements were performed in 20 mM KPi buffer at pH 8.0 for AtSHMT2 and pH 7.3 for AtSHMT4 at 30 °C. […] Units of slopes are μM.
(§3) Inhibition assays were performed using 5 μM enzyme solutions. All assays were carried out at 30 °C in 20 mM KPi buffer at either pH 8.0, in the case of AtSHMT2, or pH 7.3 in the case of AtSHMT4. Methotrexate was dissolved in pure DMSO.
(§4) The intermediate develops when both ligands bind to SHMT, forming an enzyme-glycine-folate ternary complex. […] Data were analyzed to obtain estimates of the dissociation constant (Kd) and αKd (in the presence of a saturating concentration of the other ligand) for both ligands, as reported in[31].
(§5) The obtained data were used to produce double reciprocal plots and fitted to linear equations. […] Fitting of data was performed with the software PRISM (GraphPad, La Jolla, CA, USA). All experiments were performed in triplicate using a Hewlett-Packard 8453 diode-array spectrophotometer (Agilent Technologies, Santa Clara, CA).
(§6) Absorbance at 505 nm (AtSHMT2) or 500 nm (AtSHMT4) from the quinonoid intermediate formed
(§7) measured at equilibrium. Right-side charts show double reciprocal plots of data shown in left-side panels ﬁtted to a […]

[2] = biological target: T2, AtSHMT2 (Arabidopsis thaliana, UniProt Q94C74); test: as above; conditions: AtSHMT2, 20 mM KPi pH 8.0, 30 °C, glycine 10 mM, 5-formyl-THF varied; read-out: Ki (inhibition constant, antifolate binding to the enzyme-glycine complex)
T2 construct: the protein N-truncated at E41; The open reading frames coding for AtSHMT2 41–517 fragment; His6 (N, cleaved yes); made in house; host or cells: E. coli BL21 Gold
T2 sequence (Q94C74 41-517): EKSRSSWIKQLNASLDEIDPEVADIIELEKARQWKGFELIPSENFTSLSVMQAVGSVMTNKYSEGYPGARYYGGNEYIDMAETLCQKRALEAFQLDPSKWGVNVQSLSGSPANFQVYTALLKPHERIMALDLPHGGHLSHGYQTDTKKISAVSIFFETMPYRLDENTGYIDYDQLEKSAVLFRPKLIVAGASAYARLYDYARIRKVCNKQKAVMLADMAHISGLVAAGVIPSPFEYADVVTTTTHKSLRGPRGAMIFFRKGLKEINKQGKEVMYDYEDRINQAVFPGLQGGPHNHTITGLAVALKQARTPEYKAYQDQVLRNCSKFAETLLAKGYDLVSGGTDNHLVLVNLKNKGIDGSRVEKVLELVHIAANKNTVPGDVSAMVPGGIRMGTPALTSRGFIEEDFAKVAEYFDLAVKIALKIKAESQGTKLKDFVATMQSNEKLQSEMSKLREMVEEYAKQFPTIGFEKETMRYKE
Description: as §1, §2, §3, §4, §5, §6, §7

[3] = biological target: hcSHMT; conditions: cited from earlier work
[4] = biological target: T1, AtSHMT4; test: SHMT forward reaction (serine + THF), coupled assay, initial velocity; assay type: biochemical; conditions: read-out: KM THF, 30 °C
Protocol: (§8) Figure 2 Dependence of AtSHMT2 and AtSHMT4 activity on pH. The initial velocity of the SHMT forward reaction was measured at different pH values with AtSHMT2 and AtSHMT4 (0.2 μM) using a fixed concentration of one substrate while varying the concentration of the other substrate. The fixed L-serine concentration was saturating. […] All experimental points are the average ± standard deviation of three independent measurements. […] Reactions were carried out at 30 °C.
(§9) Activities were measured at different pH values (6.0, 7.0, 8.5 and 9.5). For pH 6.0, 7.0 and 8.5, the assays were performed in 20 mM phosphate buffer. Measurements at pH 9.5 were performed in a mixture of 50 mM MES, 50 mM HEPES, and 50 mM CHES and the final pH was adjusted with KOH.

[5] = biological target: T2, AtSHMT2; test: as above; assay type: biochemical; conditions: read-out: KM THF; AtSHMT2, pH 6.5, 30 mM L-serine fixed, 30 °C
Protocol: as §8, §9

[6] = system: AtSHMT3; design: method as in PMID 20518745; conditions: read-out: KM for THF; cited from earlier work
[7] = design: method as in PMID 9067281; conditions: PTX (or its polyglutamylated forms); cited from earlier work
[8] = substrate: N[C@@H](CO)C(=O)O; test: purified protein, by the assay type; assay type: biochemical, Arabidopsis thaliana; conditions: 30 °C
[9] = other: AtSHMT2, pH 6.5, 180 µM THF fixed, pH 6.5
[10] = other: AtSHMT2, pH 7, 180 µM THF fixed, pH 7.0
[11] = other: AtSHMT2, pH 8, 180 µM THF fixed, pH 8.0
[12] = other: AtSHMT2, pH 8.5, 180 µM THF fixed, pH 8.5
[13] = other: AtSHMT2, pH 9.5, 180 µM THF fixed, pH 9.5
[14] = other: AtSHMT4, pH 6.5, 30 µM THF fixed, pH 6.5
[15] = other: AtSHMT4, pH 7, 30 µM THF fixed, pH 7.0
[16] = other: AtSHMT4, pH 8, 50 µM THF fixed, pH 8.0
[17] = other: AtSHMT4, pH 8.5, 80 µM THF fixed, pH 8.5
[18] = other: AtSHMT4, pH 9.5, 100 µM THF fixed, pH 9.5

For CN(Cc1cnc2nc(N)nc(N)c2n1)c1ccc(C(=O)N[C@@H](CCC(=O)O)C(=O)O)cc1 [MTX, methotrexate], the Ki [1] is given as 179 µM, the Ki [2] is given as 270 µM and the Ki ([3]; ref Paiardini et al.[45], read-out: KiMTX (apparent inhibition constant)) is given as 201 µM.

Work on tetrahydrofolate [THF] yielded a Km ([4]; AtSHMT4, pH 6.5, 30 mM L-serine fixed) of 7.87 ± 1.62 µM, a Km ([4]; AtSHMT4, pH 7, 30 mM L-serine fixed) of 15 ± 1.87 µM and a Km ([4]; AtSHMT4, pH 8, 30 mM L-serine fixed) of 23.8 ± 3.99 µM. For the same molecule, the Km ([4]; AtSHMT4, pH 8.5, 30 mM L-serine fixed) was 33.8 ± 5.63 µM, the Km [5] was 83.6 ± 8.1 µM and the Km [6] was 218 µM.

For Nc1nc2[nH]cc(CCc3ccc(C(=O)N[C@@H](CCC(=O)O)C(=O)O)cc3)c2c(=O)[nH]1 [PTX, pemetrexed], the Ki [1] is listed as 95 µM and 95.1 µM, the Ki [2] is listed as 119 µM and the Ki ([3]; ref Daidone et al.[26], read-out: KiPTX (inhibition constant)) is listed as 19.1 µM. The Intracellular concentration [7] was 10 to 30 µM.

B1: AtSHMT2 (Arabidopsis thaliana) (protein)
chain: EKSRSSWIKQLNASLDEIDPEVADIIELEKARQWKGFELIPSENFTSLSVMQAVGSVMTNKYSEGYPGARYYGGNEYIDMAETLCQKRALEAFQLDPSKWGVNVQSLSGSPANFQVYTALLKPHERIMALDLPHGGHLSHGYQTDTKKISAVSIFFETMPYRLDENTGYIDYDQLEKSAVLFRPKLIVAGASAYARLYDYARIRKVCNKQKAVMLADMAHISGLVAAGVIPSPFEYADVVTTTTHKSLRGPRGAMIFFRKGLKEINKQGKEVMYDYEDRINQAVFPGLQGGPHNHTITGLAVALKQARTPEYKAYQDQVLRNCSKFAETLLAKGYDLVSGGTDNHLVLVNLKNKGIDGSRVEKVLELVHIAANKNTVPGDVSAMVPGGIRMGTPALTSRGFIEEDFAKVAEYFDLAVKIALKIKAESQGTKLKDFVATMQSNEKLQSEMSKLREMVEEYAKQFPTIGFEKETMRYKE
notes: the protein N-truncated at E41; The open reading frames coding for AtSHMT2 41–517 fragment; His6 (N, cleaved yes); made in house; host or cells: E. coli BL21 Gold
In the case of B1, the Km [8, 9] is reported as 11650 ± 2030 µM, the kcat/Km [8, 9] is reported as 450 M⁻¹ s⁻¹ and the Km [8, 10] is reported as 8050 ± 1360 µM. For the same molecule, the kcat/Km [8, 10] was 1010 M⁻¹ s⁻¹, the Km [8, 11] was 2860 ± 300 µM and the kcat/Km [8, 11] was 4530 M⁻¹ s⁻¹. For the same molecule, the Km [8, 12] was 1780 ± 220 µM, the kcat/Km [8, 12] was 11600 M⁻¹ s⁻¹ and the Km [8, 13] was 710 ± 90 µM. The kcat/Km [8, 13] was 30700 M⁻¹ s⁻¹.

B2: AtSHMT4 (Arabidopsis thaliana) (protein)
chain: MEPVSSWGNTSLVSVDPEIHDLIEKEKRRQCRGIELIASENFTSFAVIEALGSALTNKYSEGIPGNRYYGGNEFIDEIENLCRSRALEAFHCDPAAWGVNVQPYSGSPANFAAYTALLQPHDRIMGLDLPSGGHLTHGYYTSGGKKISATSIYFESLPYKVNFTTGYIDYDKLEEKALDFRPKLLICGGSAYPRDWDYARFRAIADKVGALLLCDMAHISGLVAAQEAANPFEYCDVVTTTTHKSLRGPRAGMIFYRKGPKPPKKGQPEGAVYDFEDKINFAVFPALQGGPHNHQIGALAVALKQANTPGFKVYAKQVKANAVALGNYLMSKGYQIVTNGTENHLVLWDLRPLGLTGNKVEKLCDLCSITLNKNAVFGDSSALAPGGVRIGAPAMTSRGLVEKDFEQIGEFLSRAVTLTLDIQKTYGKLLKDFNKGLVNNKDLDQLKADVEKFSASYEMPGFLMSEMKYKD
notes: The open reading frames coding for AtSHMT2 41–517 fragment and full-length AtSHMT4 were amplified; His6 (N, cleaved yes); made in house; host or cells: E. coli BL21 Gold
For B2, the Km [8, 14] was 2560 ± 260 µM, the kcat/Km [8, 14] was 4630 M⁻¹ s⁻¹ and the Km [8, 15] was 540 ± 50 µM. For the same molecule, the kcat/Km [8, 15] was 30000 M⁻¹ s⁻¹, the Km [8, 16] was 300 ± 20 µM and the kcat/Km [8, 16] was 57900 M⁻¹ s⁻¹. For the same molecule, the Km [8, 17] was 240 ± 20 µM, the kcat/Km [8, 17] was 81500 M⁻¹ s⁻¹ and the Km [8, 18] was 200 ± 20 µM. It also gave a kcat/Km [8, 18] of 90800 M⁻¹ s⁻¹.
